Laboratory results as given in PMC3701320, “Crystal Structures of Malonyl-Coenzyme A Decarboxylase Provide Insights into Its Catalytic Mechanism and Disease-Causing Mutations” (Structure(London, England:1993), 2013).
Numbering of substitutions follows the chain as printed. Numbers in names are those of the source.

Columns and labels:
[1] = molecular target: Rhodopseudomonas palustris malonyl-CoA decarboxylase (RpMCD), residues 8-451 (Rhodopseudomonas palustris); experiment: multiangle static light scattering; oligomeric state in solution; data not shown
[2] = molecular target: Cupriavidus metallidurans malonyl-CoA decarboxylase (CmMCD), residues 57-473 (Cupriavidus metallidurans); experiment: not stated; oligomeric state of CmMCD in solution; method not given
[3] = molecular target: the molecule itself; experiment: SEC + AUC; analytical gel filtration on Superdex 200 in 10 mM HEPES pH 7.5, 150 mM NaCl; sedimentation velocity at 30,000 rpm, 4 °C, 50 μM HsMCD in the same buffer; oligomeric state in solution
[4] = molecular target: the molecule itself; experiment: multiangle static light scattering; oligomeric state in solution; data not shown

For “Rhodopseudomonas palustris malonyl-CoA decarboxylase (RpMCD), residues 8-451 (enzyme)”, the stoichiometry N [1] was 4.

Molecule “Cupriavidus metallidurans malonyl-CoA decarboxylase (CmMCD), residues 57-473 (enzyme)” has a stoichiometry N [2] of 2.

B1: Wild-type human malonyl-coenzyme A decarboxylase (HsMCD), residues 40-491 (enzyme, UniProt O95822 40-491, looked up)
chain: MDELLRRAVPPTPAYELREKTPAPAEGQCADFVSFYGGLAETAQRAELLGRLARGFGVDHGQVAEQSAGVLHLRQQQREAAVLLQAEDRLRYALVPRYRGLFHHISKLDGGVRFLVQLRADLLEAQALKLVEGPDVREMNGVLKGMLSEWFSSGFLNLERVTWHSPCEVLQKISEAEAVHPVKNWMDMKRRVGPYRRCYFFSHCSTPGEPLVVLHVALTGDISSNIQAIVKEHPPSETEEKNKITAAIFYSISLTQQGLQGVELGTFLIKRVVKELQREFPHLGVFSSLSPIPGFTKWLLGLLNSQTKEHGRNELFTDSECKEISEITGGPINETLKLLLSSSEWVQSEKLVRALQTPLMRLCAWYLYGEKHRGYALNPVANFHLQNGAVLWRINWMADVSLRGITGSCGLMANYRYFLEETGPNSTSYLGSKIIKASEQVLSLVAQFQKNS
notes: Malonyl-CoA decarboxylase (MCD, E.C. 4.1.1.9), human, residues 40-491, corresponding to the mature mitochondrial form; The His6-tag is TEV-cleavable (vector pNIC28-Bsa4, GenBank EF198106); also called human MCD; Wild-type HsMCD
For B1, the “stoichiometry N” value [3] was 4.

B2: HsMCD E58A/K59A/E278A/E279A/K280A quintuple surface entropy reduction (SER) mutant, residues 40-491 (enzyme, human, UniProt O95822 40-491, looked up)
chain: B1 chain with E19A, K20A, E239A, E240A, K241A
notes: Malonyl-CoA decarboxylase (MCD), human, residues 40-491 (mature mitochondrial form) with five alanine substitutions for surface entropy reduction; The His6-tag is TEV-cleavable; Crystallised with a dimer in the asymmetric unit; the tetramer is generated through a crystallographic 2-fold axis; also called Quintuple SER mutant; SER quintuple mutant
B2: binds [3].

B3: Agrobacterium vitis malonyl-CoA decarboxylase (AvMCD), residues 1-448 (enzyme)
chain: MAGTSFLSDLLSGVTERGRALLFSGSKARDRVVDTDIETLCEMLLSSRGEASGMAIAAEILDRWSRFNAAEAVQFLHMLSDRFGAEAAALDKAIDAYRTDKSPMAVIALHNAAEPRRQELLRRLNLAPNGTQKLVRMRERLLETKEDRADLGAVDTDFAHLFSSWFNRGFLTLQPIDWTTPAHILEKIIKYEAVHEIAGWEELRRRLAPADRRCFAFFHPRLRDDPLVFVEVALTRSIPSAIADVLDESRDHIGADTATTAVFYSISNCQDGLRGISFGNFLIKQVVEDLRRDLPGLKEFVTLSPVPGFARWISKIRDPKSGFPLSPEDRNTLVLLDDPTWPEDKARADAVERILLPLAARYFITERTPDNRPVDPVARFHLGNGARLERLNFLGDRSVKAMRQAHGLMVNYLYKLEDIETNHEALAQRGEVAASPAVKALQGKIEPI
modifications: selenomethionyl (Se-Met labeled) protein
In the case of B3, the “stoichiometry N” value [4] is reported as 4.
